Assay results taken from patent US20190177366A1 (published 2019).
Ends that are not written are not given here.

B1: SEQ ID NO 327 (peptide)
chain: TAFTSWEEYLDWVGSGACLNHFVSGNMIRC
notes: phage clone
B2: SEQ ID NO 319 (peptide)
chain: TAFTSWEEYLDWVGSGALWNMRRVESVAFR
notes: phage clone
B3: SEQ ID NO 352 (peptide)
chain: TAFTSWEEYLDWVGSGNCARLYSHQRDYSQVC
notes: phage clone
B4: SEQ ID NO 355 (peptide)
chain: TAFTSWEEYLDWVGSGCYPLCRVG
notes: phage clone
B5: SEQ ID NO 364 (peptide)
chain: TAFTSWEEYLDWVGSGCYPLCRVL
notes: phage clone
B6: SEQ ID NO 318 (peptide)
chain: TAFTSWEEYLDWVGSGMPWNLARIER
notes: phage clone
B7: SEQ ID NO 359 (peptide)
chain: TAFTSWEEYLDWVGSGGDCYPHCRLV
modifications: not fully specified (bridges); cysteine pairing not given here
notes: phage clone
B8: SEQ ID NO 309 (peptide)
chain: TAFTSWEEYLDWVGSGGPWNLNRV
notes: phage clone
B9: SEQ ID NO 347 (peptide)
chain: TAFTSWEEYLDWVGSGNMCYLRGKMDCNIV
notes: phage clone
B10: SEQ ID NO 362 (peptide)
chain: TAFTSWEEYLDWVGSGRCESKGWANTCVSE
notes: phage clone
B11: SEQ ID NO 330 (peptide)
chain: TAFTSWEEYLDWVGSGEDVVCYGRVDYMPLCV
notes: phage clone
B12: SEQ ID NO 358 (peptide)
chain: TAFTSWEEYLDWVGSGGCGYRYMCDMINGL
notes: phage clone
B13: SEQ ID NO 322 (peptide)
chain: TAFTSWEEYLDWVGSGMVYVDRGVRVFT
notes: phage clone
B14: SEQ ID NO 331 (peptide)
chain: TAFTSWEEYLDWVGSGNPTYWLTRIS
notes: phage clone
B15: SEQ ID NO 316 (peptide)
chain: TAFTSWEEYLDWVGSGGHPLWNLSRI
notes: phage clone
B16: SEQ ID NO 349 (peptide)
chain: TAFTSWEEYLDWVGSGCCSYGYEKCCNG
B17: SEQ ID NO 360 (peptide)
chain: TAFTSWEEYLDWVGSGDCLRYRVGSSCS
modifications: not fully specified (bridges); cysteine pairing not given here
notes: phage clone
B18: SEQ ID NO 345 (peptide)
chain: TAFTSWEEYLDWVGSGGDCGYHYMCSMT
modifications: not fully specified (bridges); cysteine pairing not given here
notes: phage clone
B19: SEQ ID NO 353 (peptide)
chain: TAFTSWEEYLDWVGSGCLDRSGGCYTREGYLS
notes: phage clone
B20: SEQ ID NO 348 (peptide)
chain: TAFTSWEEYLDWVGSGVCSDHYIGGKEVRC
notes: phage clone
B21: SEQ ID NO 337 (peptide)
chain: TAFTSWEEYLDWVGSGCMEAWQCSLA
notes: phage clone
B22: SEQ ID NO 350 (peptide)
chain: TAFTSWEEYLDWVGSGSETGLGTYYG
notes: phage clone
B23: SEQ ID NO 328 (peptide)
chain: TAFTSWEEYLDWVGSGCPFYDWRCSDFS
modifications: not fully specified (bridges); cysteine pairing not given here
notes: phage clone
B24: SEQ ID NO 344 (peptide)
chain: TAFTSWEEYLDWVGSGGREMRSVIQM
notes: phage clone
B25: SEQ ID NO 346 (peptide)
chain: TAFTSWEEYLDWVGSGQELPNHRRLS
notes: phage clone
B26: SEQ ID NO 366 (peptide)
chain: SGPRTYLRGLVD
notes: phage clone without anchor
B27: SEQ ID NO 312 (peptide)
chain: TAFTSWEEYLDWVGSGKLWNLTRISS
notes: phage clone
B28: SEQ ID NO 313 (peptide)
chain: TAFTSWEEYLDWVGSGVVLWNHSRIL
notes: phage clone
B29: SEQ ID NO 308 (peptide)
chain: TAFTSWEEYLDWVGSGVLWNHSRI
notes: phage clone
B30: SEQ ID NO 338 (peptide)
chain: TAFTSWEEYLDWVGSGQCYPWCRL
notes: phage clone
B31: SEQ ID NO 307 (peptide)
chain: TAFTSWEEYLDWVGSGNCWSSLRGICENLG
notes: phage clone
B32: SEQ ID NO 351 (peptide)
chain: TAFTSWEEYLDWVGSGSPCRVGYTPC
modifications: not fully specified (bridges); cysteine pairing not given here
notes: phage clone
B33: SEQ ID NO 310 (peptide)
chain: TAFTSWEEYLDWVGSGPLLWNLQKVH
notes: phage clone
B34: SEQ ID NO 357 (peptide)
chain: TAFTSWEEYLDWVGSGKMTHMKAD
notes: phage clone
B35: SEQ ID NO 311 (peptide)
chain: TAFTSWEEYLDWVGSGSCSWNVERIRGCSV
notes: phage clone
B36: SEQ ID NO 320 (peptide)
chain: TAFTSWEEYLDWVGSGGEYLWNLKRLES
notes: phage clone
B37: SEQ ID NO 354 (peptide)
chain: TAFTSWEEYLDWVGSGSSTWHFVGGVRV
notes: phage clone
B38: SEQ ID NO 321 (peptide)
chain: TAFTSWEEYLDWVGSGTRYADRGVMVYSLS
notes: phage clone
B39: SEQ ID NO 332 (peptide)
chain: TAFTSWEEYLDWVGSGPHSYWLDRVQ
notes: phage clone
B40: SEQ ID NO 306 (peptide)
chain: TAFTSWEEYLDWVGSGKLWNLGRV
notes: phage clone
B41: SEQ ID NO 326 (peptide)
chain: TAFTSWEEYLDWVGSGRGGYELNIPR
notes: phage clone
B42: SEQ ID NO 323 (peptide)
chain: TAFTSWEEYLDWVGSGGCVKYRGSVSCQESKT
notes: phage clone
B43: SEQ ID NO 336 (peptide)
chain: TAFTSWEEYLDWVGSGSYRGAWSVFGGSTD
notes: phage clone
B44: SEQ ID NO 314 (peptide)
chain: TAFTSWEEYLDWVGSGVPWNLARL
notes: phage clone
B45: SEQ ID NO 315 (peptide)
chain: TAFTSWEEYLDWVGSGVPWNLAKI
notes: phage clone
B46: SEQ ID NO 363 (peptide)
chain: TAFTSWEEYLDWVGSGQVTSLPQA
notes: phage clone
B47: SEQ ID NO 324 (peptide)
chain: TAFTSWEEYLDWVGSGEHQFYSYRGVDVYR
notes: phage clone
B48: SEQ ID NO 334 (peptide)
chain: TAFTSWEEYLDWVGSGCVKVGLSWIGDCNS
notes: phage clone
B49: SEQ ID NO 339 (peptide)
chain: TAFTSWEEYLDWVGSGCWTYLRGGCSVT
modifications: not fully specified (bridges); cysteine pairing not given here
notes: phage clone
B50: SEQ ID NO 325 (peptide)
chain: TAFTSWEEYLDWVGSGKNNYAYLINMPRAPGI
notes: phage clone
B51: SEQ ID NO 340 (peptide)
chain: TAFTSWEEYLDWVGSGPRTYLRGLVD
notes: phage clone
B52: SEQ ID NO 343 (peptide)
chain: TAFTSWEEYLDWVGSGRGEVYDKGGVIVHL
notes: phage clone
B53: SEQ ID NO 329 (peptide)
chain: TAFTSWEEYLDWVGSGNVRCYRDVPSCS
modifications: not fully specified (bridges); cysteine pairing not given here
notes: phage clone
B54: SEQ ID NO 361 (peptide)
chain: TAFTSWEEYLDWVGSGPTSGLTPS
notes: phage clone
B55: SEQ ID NO 341 (peptide)
chain: TAFTSWEEYLDWVGSGQTTYLRVSSS
notes: phage clone
B56: SEQ ID NO 317 (peptide)
chain: TAFTSWEEYLDWVGSGNELWNINRLRSS
notes: phage clone
B57: SEQ ID NO 356 (peptide)
chain: TAFTSWEEYLDWVGSGKCDSHYIRGVVACH
notes: phage clone

Biological target: T1, proprotein convertase subtilisin/kexin type 9 (PCSK9) (human, UniProt Q8NBP7 31-152)
T1 construct: domain: prodomain; Recombinant; tag not written as a part; also called rec.PCSK9; His-PCSK9
Experiment: phage spot ELISA

T1 sequence (Q8NBP7 31-152 limits assumed, chain 1 of 2): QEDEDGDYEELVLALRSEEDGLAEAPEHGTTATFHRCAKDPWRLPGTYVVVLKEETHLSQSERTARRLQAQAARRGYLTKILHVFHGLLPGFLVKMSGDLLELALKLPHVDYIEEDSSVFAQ
T1 sequence (Q8NBP7 153-692 limits assumed, chain 2 of 2): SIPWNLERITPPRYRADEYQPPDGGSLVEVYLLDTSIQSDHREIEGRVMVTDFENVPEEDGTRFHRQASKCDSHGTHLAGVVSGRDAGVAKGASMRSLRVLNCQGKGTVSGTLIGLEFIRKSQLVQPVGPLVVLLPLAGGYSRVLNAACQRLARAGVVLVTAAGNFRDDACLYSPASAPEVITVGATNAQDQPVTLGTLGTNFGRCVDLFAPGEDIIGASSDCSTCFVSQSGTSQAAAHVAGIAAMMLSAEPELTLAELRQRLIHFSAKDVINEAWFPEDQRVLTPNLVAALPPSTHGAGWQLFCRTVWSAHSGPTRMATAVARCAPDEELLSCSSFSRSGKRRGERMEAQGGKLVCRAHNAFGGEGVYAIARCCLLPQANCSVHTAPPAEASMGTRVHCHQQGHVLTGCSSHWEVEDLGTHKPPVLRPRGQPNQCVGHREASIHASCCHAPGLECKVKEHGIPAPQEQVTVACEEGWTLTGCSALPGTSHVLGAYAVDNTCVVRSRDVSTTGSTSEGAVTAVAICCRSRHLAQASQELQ

Binder	binding result
B1	binds
B2	binds
B3	binds
B4	binds
B5	binds
B6	binds
B7	binds
B8	binds
B9	binds
B10	binds
B11	binds
B12	binds
B13	binds
B14	binds
B15	binds
B16	binds
B17	binds
B18	binds
B19	binds

Binder	binding result
B20	binds
B21	binds
B22	binds
B23	binds
B24	binds
B25	binds
B26	binds
B27	binds
B28	binds
B29	binds
B30	binds
B31	binds
B32	binds
B33	binds
B34	binds
B35	binds
B36	binds
B37	binds
B38	binds

Binder	binding result
B39	binds
B40	binds
B41	binds
B42	binds
B43	binds
B44	binds
B45	binds
B46	binds
B47	binds
B48	binds
B49	binds
B50	binds
B51	binds
B52	binds
B53	binds
B54	binds
B55	binds
B56	binds
B57	binds
